Source: PMC3429342
Each block holds one substance with its values, some of them ahead of it.

Legend:
Test in all cases: AUC
[1] = target: Dscam1 11C.27.25 fragment containing the N-terminal 8 Ig domains (Drosophila melanogaster)
[2] = target: Dscam1^10.27.25 fragment containing the N-terminal 8 Ig domains (Drosophila melanogaster)
[3] = target: Dscam1 4C.31.8 fragment containing the N-terminal 8 Ig domains (Drosophila melanogaster)
[4] = target: Dscam1 3C.31.8 fragment containing the N-terminal 8 Ig domains (Drosophila melanogaster)
[5] = target: Dscam1^3.31.8 fragment containing the N-terminal 8 Ig domains (Drosophila melanogaster)
[6] = target: Dscam1 10C.27.25 fragment containing the N-terminal 8 Ig domains (Drosophila melanogaster)

Kd [1]: > 500 µM
Substance: Dscam1 11C.27.25 fragment containing the N-terminal 8 Ig domains (domain or fragment)

Kd [2]: 1 µM
stoichiometry N [2]: 2
Substance: Dscam1^10.27.25 fragment containing the N-terminal 8 Ig domains (domain or fragment)

Kd [3]: > 500 µM
Substance: Dscam1 4C.31.8 fragment containing the N-terminal 8 Ig domains (domain or fragment)

Kd [4]: > 500 µM
Kd [3]: 0.99 µM
Substance: Dscam1 3C.31.8 fragment containing the N-terminal 8 Ig domains (domain or fragment)

Kd [5]: 2.12 µM
stoichiometry N [5]: 2
Substance: Dscam1^3.31.8 fragment containing the N-terminal 8 Ig domains (domain or fragment)

Kd [6]: > 500 µM
Kd [1]: 4.6 µM
Substance: Dscam1 10C.27.25 fragment containing the N-terminal 8 Ig domains (domain or fragment)
